Source: PMC4324353
Read-outs that look alike come from different tables or passages of the source.

Key:
[1] = biological target: actin filaments (polymerized A. castellani actin) (A. castellani); assay: steady state polymerization titration
[2] = biological target: T1, latrunculin B bound actin (A. castellani actin monomer) (A. castellani); assay: fluorescence polarisation
[3] = biological target: T1, latrunculin B bound actin (A. …); assay: fluorescence polarisation; remark: listed apart in the source

KKDAHAMILEFIRSRPPLKKA (domain or fragment, modifications not checked) [Spir third WH2 domain (Spir-C, SC)]
Kd [1]: 2000 nM
Kd [2]: 210 nM

KKDAHAMILEFIRSRPPLKKASDRQLGPPRMCEPS (domain or fragment, modifications not checked) [Spir third WH2 domain with Linker 3 (SC3)]
Kd [2]: 110 nM

WARFWVQVIDELRRGVRLKKSNHERT (domain or fragment, modifications not checked) [Spir first WH2 domain (SA)]
Kd [2]: 1140 nM
Kd [3]: 90 to 1130 nM
